In article PMC9091920 (Journal of Pharmaceutical Analysis, 2021):

What was measured:
[1] = target: recombinant human interferon α2b (human) (UniProt P01563); assay: far-Western, overlay or dot blot
[2] = target: recombinant human interferon α2b (human) (UniProt P01563); assay: lateral-flow immunochromatographic strip
[3] = target: recombinant human interferon α2b (human) (UniProt P01563); assay: BLI

- limit of detection [1]: 31.2 ng
- limit of detection [2]: 1 µg/mL
- Kd [3]: 2.06 nM
B1: nanobody I22 (His-labeled, purified) (VHH)
VHH: QVQLVESGGGLVQPGGSLRLSCVASGFTFDSATMSWHRQAPGREREFVAMTSGGGMINYANSVKGRFTISRDNAKNTVYLQMDSLKPEDTAVYYCHRLGTFHWGQGTQVTVSS
